{"source": "patent US20090233993A1", "about": "“COMPOSITIONS AND METHODS FOR INHIBITING GSK3 ACTIVITY AND USES THEREOF” (Burnham Institute for Medical Research, priority 2008, published 2009)", "molecules": {"B1": {"name": "FG01: 141 amino acid transmembrane protein encoded by mouse retrogene fg01 (SEQ ID NO:2); expressed from transfected vector or transgene (protein)", "chain": "MQSQQRNIGYFNHLKADSRNITYSMTFSTKSSNQNFIIFLNEVQAAIIGHERCDLLPVLNELHPDALPDGRIWLFGLNPYFFQHNSLCMRGTPKRIGLQGCAQVGFLVLFVMPLLIPSVTAELPGSSETTTLAHLAGATGP", "modifications": "Myc and His6 tags; homo sapien", "notes": "expressed from transfected vector or transgene"}}, "key": {"[1]": {"system": "Aβ generation", "assay": "Aβ generation / APP processing in HeLaSwe cells expressing FG01 (Western blot, ELISA)", "format": "cell-based, human", "experimental": "Expression of secreted Aβ, sAPPα, β-CTF, total APP, α-tubulin and FG01 were detected by Western blots.\nHeLa/swe cells were transfected with GSK-3β and/or FG01 as indicated. The levels of Aβ40/42 were determined by modified ELISA. The expression of GSK-3β and β-catenin were shown by Western blots. n=4.\nHeLaSwe cells were transfected with FG01 or controls. Conditioned media and lysates from these cells were collected. The levels of Aβ40 and Aβ42 were quantified using ELISA kits (Invitrogen), following the manufacturer's protocols.\nTo corroborate this, FG01 was over expressed in N2aSwe cells."}, "[2]": {"system": "β-secretase (BACE1)", "assay": "β-secretase (BACE1) in vitro activity and protein level in FG01-overexpressing cells", "format": "cell-based, mouse", "experimental": "The in vitro activity of β-secretase (BACE1) was assayed using a commercial kit (Calbiochem), following the manufacturer's protocol.\nTo determine whether FG01 reduces Aβ generation by modulating β-secretase activities, β-secretase (BACE1) activity and the protein level of BACE1 in vitro in FG01-overexpressing cells was examined and both were unchanged. FG01 cell clones identified by RHKO were treated with DMSO (control) or 2 μg/ml doxycycline for 72 hrs. In some experiments, N2a cells were transfected with control vector (Con) or FG01 vector for 48 hrs. Cell lysates were assayed for β-secretase activity. FG01 was transfected into N2a cells and equal protein lysates were subjected to SDS-PAGE and Western blot with antibodies against BACE1 (Yan et al., 2001), nicastrin (Leem et al., 2002) or Myc. APP βCTF accumulation can also be attributed to a decrease in γ-secretase-mediated cleavage."}, "[3]": {"system": "CDK5", "assay": "CDK5 protein level and in vitro activity in N2a cells", "format": "cell-based, mouse", "conditions": "FG01 overexpression", "experimental": "The in vitro activity of CDK5 was assayed as described (Han et al., 2005). Briefly, CDK5 protein was immunoprecipitated and incubated with histone-H1 in [γ-^32P]ATP-containing buffer. After reaction termination, samples were subjected to SDS-PAGE and autoradiography. Results were quantified using a PhosphoImager (Molecular Dynamics).\nGSK-3 is a major kinase that phosphorylates tau in AD (Flaherty et al., 2000). […] N2aSwe cells were cotransfected with the human tau splice variant T40 and with FG01 (or control vectors), and examined tau phosphorylation at the threonine 205 site (Thr205) and the PHF-1 tau epitope sites (serine 396 and serine 404), which are GSK-3 phosphorylation targets, and at the major paired helical filament (PHF) sites found in NFTs. […] Protein levels and activity of CDK5, another kinase mediating tau phosphorylation in AD (Flaherty et al., 2000), was analyzed following FG01 overexpression. […] N2a cells were transfected with FG01 or a control vector (Con). Equal cell lysate proteins were used for assaying in vitro CDK5 activity."}, "[4]": {"system": "CDK5", "assay": "CDK5 levels by Western blot in transfected HeLa and MFB cells", "format": "cell-based, mouse and human", "conditions": "FG01-transfected HeLa and MFB cells", "source_text": "The expression of CDK5, FG01 and α-tubulin were detected by Western blots in transfected HeLa and MFB cells."}, "[5]": {"system": "β-catenin", "assay": "β-catenin level in mouse N2a cells (Western blot)", "format": "cell-based", "conditions": "FG01 overexpression", "source_text": "The levels of total GSK-3 were used as normalization factors."}, "[6]": {"system": "3×Tg AD mice", "assay": "FG01 transgenic mice crossed with triple transgenic (3×Tg) AD mice, brain analysis", "format": "in vivo, mouse", "source_text": "Brain-specific FG01 transgenic mice were generated using a FG01 expression cassette. FG01 has an N-terminal Myc tag and is driven by the human Thy-1 promoter for neuron-specific expression. A SV40 polyA fragment is linked at the 3′ end for enhancing expression. Genotyping P5 primer was complementary to hThy1 sequence. Genotyping P3 primer was complementary to SV40/Poly A sequence. Reverse transcription primer RT-P5 was complementary to sequence on the 5′ side of the FG01 sequence. Hemizygous FG01 transgenic mice were crossed with homozygous triple transgenic (3×Tg) AD mice harboring mutations in human APP and tau genes on a presenilin 1 (PS1) mutant background (Oddo et al., 2003). Procedures involving animals and their care conformed to institutional guidelines (Animal Resources Department at Burnham Institute for Medical Research).\nFG01/3×Tg mice and littermate controls on a 3×Tg background were sacrificed at 11 months of age. Half of the brain was used for immunoblot analysis and the other half was paraffin-embedded for immunohistochemistry. Sagittal brain sections (4 μm) were deparaffinized, hydrated, and then immunostained with anti-Aβ antibody (6E10), anti-phosphorylated tau antibody (PHF-1), or anti-synapsin antibody. After additional incubation with biotinylated secondary antibody, samples were incubated in ABC Elite (HRP) reagent (Vector Laboratories). Reactions were visualized by developing in DAB substrates (Vector Laboratories). All samples were visualized under a light microscope.\nFG01 transgenic mice were crossed with triple transgenic (3×Tg) AD mice harboring mutations in human APP, tau and presenilin 1 (PS1) genes (Oddo et al., 2003)."}, "[7]": {"conditions": "ELISA, HeLaSwe cells, FG01 expression"}, "[8]": {"conditions": "FG01/3×Tg vs 3×Tg littermates, 11 months"}}, "note": "“Also recorded” adds a separate entry of the source."}
{"molecule": "B1", "values": [{"measurement": "Aβ40 level", "setting": "[1]; [7]", "result": "significantly reduced"}, {"measurement": "Aβ42 level", "setting": "[1]; [7]", "result": "significantly reduced"}, {"measurement": "effects of overexpression of GSK-3β on Aβ production", "setting": "[1]; HeLa/swe cells transfected with GSK-3β and/or FG01, Aβ40/42 ELISA", "result": "suppressed"}, {"measurement": "Aβ levels / Aβ generation", "setting": "[1]; mouse FG01 expressed in HeLa cells with APP Swedish mutant", "result": "decreases; also recorded: reduced Aβ generation"}, {"measurement": "accumulation of sAPPα", "setting": "[1]; mouse FG01 in HeLaSwe cells", "result": "increased accumulation"}, {"measurement": "accumulation of βCTF", "setting": "[1]; mouse FG01 in HeLaSwe cells", "result": "increased accumulation"}, {"measurement": "protein level of BACE1", "setting": "[2]; FG01-overexpressing N2a cells, Western blot", "result": "unchanged"}, {"measurement": "β-secretase (BACE1) activity", "setting": "[2]; in vitro assay, FG01-overexpressing cells", "result": "did not significantly change; also recorded: unchanged"}, {"measurement": "CDK5 in vitro activity", "setting": "[3]", "result": "Little change"}, {"measurement": "CDK5 protein level", "setting": "[3]", "result": "Little change"}, {"measurement": "levels of CDK5", "setting": "[4]", "result": "did not change"}, {"measurement": "level of β-catenin", "setting": "[5]", "result": "increases"}, {"measurement": "levels of the synaptic marker PSD-95", "setting": "[6]; 3×Tg mouse brains with FG01 overexpression", "result": "markedly increased"}, {"measurement": "Aβ generation in brain", "setting": "[6]; [8]", "result": "reduced"}, {"measurement": "GSK-3 activity in brain", "setting": "[6]; [8]", "result": "reduced"}, {"measurement": "PKA activity in brain", "setting": "[6]; [8]", "result": "dramatically increased"}, {"measurement": "tau phosphorylation in brain", "setting": "[6]; [8]", "result": "reduced"}, {"measurement": "number of Aβ-immunostaining-positive neurons", "setting": "[6]; hippocampus and cortex, immunohistochemistry 6E10", "result": "significantly decreased"}, {"measurement": "number of phosphorylated tau-immunostaining-positive neurons", "setting": "[6]; hippocampus and cortex, immunohistochemistry PHF-1", "result": "significantly decreased"}, {"measurement": "synapsin immunostaining", "setting": "[6]; hippocampus, vs 3×Tg mice without FG01", "result": "much higher immunoreactivity"}]}
